Experimental data as given in the supplement of paper PMC11316812.
± gives the standard deviation of the averaged measurements.

Tests used:
MCF7 = assay: percentage of EdU-negative (G0-arrested) nuclei per well, 72 h; higher = more G0 arrest; conditions: reference: sequence is the full UniProt precursor, the tested protein was the secreted form or ectodomain
hTERT-HMEC = assay: as above; conditions: reference: sequence is the full UniProt precursor, the tested protein was the secreted form or ectodomain
[1] = protein concentration 0.0225 µM
[2] = protein concentration 0.0357143 µM
[3] = protein concentration 0.357143 µM
[4] = protein concentration 0.0208571 µM
[5] = protein concentration 0.208571 µM
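Further: secreted proteins added to cultured cells, EdU pulse at the end, nuclei found by Hoechst imaging, EdU status from nuclear versus surrounding ring intensity ratio, PBS as neutral control.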

Sequence	percentage of EdU-negative (MCF7; [1]) [%]	percentage of EdU-negative (MCF7; protein concentration 0.225 µM) [%]	percentage of EdU-negative (hTERT-HMEC; [1]) [%]	percentage of EdU-negative (hTERT-HMEC; protein concentration 0.225 µM) [%]	also measured
MNAFLLSALCLLGAWAALAGGVTVQDGNFSFSLESVKKLKDLQEPQEPRVGKLRNFAPIPGEPVVPILCSNPNFPEELKPLCKEPNAQEILQRLEEIAEDPGTCEICAYAACTGC	27.03 ± 0.26	24.3 ± 0.35	5.03 ± 0.081	5.29 ± 0.21	–
MLCLLLTLGVALVCGVPAMDIPQTKQDLELPKLAGTWHSMAMATNNISLMATLKAPLRVHITSLLPTPEDNLEIVLHRWENNSCVEKKVLGEKTENPKKFKINYTVANEATLLDTDYDNFLFLCLQDTTTPIQSMMCQYLARVLVEDDEIMQGFIRAFRPLPRHLWYLLDLKQMEEPCRF	–	–	–	–	percentage of EdU-negative (MCF7; [2]): 24.5 ± 2.6%; percentage of EdU-negative (MCF7; [3]): 23 ± 1.3%; percentage of EdU-negative (hTERT-HMEC; [2]): 5.01 ± 0.051%; percentage of EdU-negative (hTERT-HMEC; [3]): 5.65 ± 0.33%
MGKNKLLHPSLVLLLLVLLPTDASVSGKPQYMVLVPSLLHTETTEKGCVLLSYLNETVTVSASLESVRGNRSLFTDLEAENDVLHCVAFAVPKSSSNEEVMFLTVQVKGPTQEFKKRTTVMVKNEDSLVFVQTDKSIYKPGQTVKFRVVSMDENFHPLNELIPLVYIQDPKGNRIAQWQSFQLEGGLKQFSFPLSSEPFQGSYKVVVQKKSGGRTEHPFTVEEFVLPKFEVQVTVPKIITILEEEMNVSVCGLYTYGKPVPGHVTVSICRKYSDASDCHGEDSQAFCEKFSGQLNSHGCFYQQVKTKVFQLKRKEYEMKLHTEAQIQEEGTVVELTGRQSSEITRTITKLSFVKVDSHFRQGIPFFGQVRLVDGKGVPIPNKVIFIRGNEANYYSNATTDEHGLVQFSINTTNVMGTSLTVRVNYKDRSPCYGYQWVSEEHEEAHHTAYLVFSPSKSFVHLEPMSHELPCGHTQTVQAHYILNGGTLLGLKKLSFYYLIMAKGGIVRTGTHGLLVKQEDMKGHFSISIPVKSDIAPVARLLIYAVLPTGDVIGDSAKYDVENCLANKVDLSFSPSQSLPASHAHLRVTAAPQSVCALRAVDQSVLLMKPDAELSASSVYNLLPEKDLTGFPGPLNDQDNEDCINRHNVYINGITYTPVSSTNEKDMYSFLEDMGLKAFTNSKIRKPKMCPQLQQYEMHGPEGLRVGFYESDVMGRGHARLVHVEEPHTETVRKYFPETWIWDLVVVNSAGVAEVGVTVPDTITEWKAGAFCLSEDAGLGISSTASLRAFQPFFVELTMPYSVIRGEAFTLKATVLNYLPKCIRVSVQLEASPAFLAVPVEKEQAPHCICANGRQTVSWAVTPKSLGNVNFTVSAEALESQELCGTEVPSVPEHGRKDTVIKPLLVEPEGLEKETTFNSLLCPSGGEVSEELSLKLPPNVVEESARASVSVLGDILGSAMQNTQNLLQMPYGCGEQNMVLFAPNIYVLDYLNETQQLTPEIKSKAIGYLNTGYQRQLNYKHYDGSYSTFGERYGRNQGNTWLTAFVLKTFAQARAYIFIDEAHITQALIWLSQRQKDNGCFRSSGSLLNNAIKGGVEDEVTLSAYITIALLEIPLTVTHPVVRNALFCLESAWKTAQEGDHGSHVYTKALLAYAFALAGNQDKRKEVLKSLNEEAVKKDNSVHWERPQKPKAPVGHFYEPQAPSAEVEMTSYVLLAYLTAQPAPTSEDLTSATNIVKWITKQQNAQGGFSSTQDTVVALHALSKYGAATFTRTGKAAQVTIQSSGTFSSKFQVDNNNRLLLQQVSLPELPGEYSMKVTGEGCVYLQTSLKYNILPEKEEFPFALGVQTLPQTCDEPKAHTSFQISLSVSYTGSRSASNMAIVDVKMVSGFIPLKPTVKMLERSNHVSRTEVSSNHVLIYLDKVSNQTLSLFFTVLQDVPVRDLKPAIVKVYDYYETDEFAIAEYNAPCSKDLGNA	–	–	–	–	percentage of EdU-negative (MCF7; [4]): 23 ± 0.6%; percentage of EdU-negative (MCF7; [5]): 27.8 ± 2.3%; percentage of EdU-negative (hTERT-HMEC; [4]): 4.57 ± 0.3%; percentage of EdU-negative (hTERT-HMEC; [5]): 5.37 ± 0.84%
MKTGHFEIVTMLLATMILVDIFQVKAEVLDMADNAFDDEYLKCTDRMEIKYVPQLLKEEKASHQQLDTVWENAKAKWAARKTQIFLPMNFKDNHGIALMAYISEAQEQTPFYHLFSEAVKMAGQSREDYIYGFQFKAFHFYLTRALQLLRKPCEASSKTVVYRTSQGTSFTFGGLNQARFGHFTLAYSAKPQAANDQLTVLSIYTCLGVDIENFLDKESERITLIPLNEVFQVSQEGAGNNLILQSINKTCSHYECAFLGGLKTENCIENLEYFQPIYVYNPGEKNQKLEDHSEKNWKLEDHGEKNQKLEDHGVKILEPTQIPGMKIPEPFPLPEDKSQGNINNPTPGPVPVPGPKSHPSASSGKLLLPQFGMVIILISVSAINLFVAL	24.99 ± 0.071	27.3 ± 1.4	4.51 ± 0.24	5.22 ± 0.84	–
MLSSVVFWGLIALIGTSRGSYPFSHSMKPHLHPRLYHGCYGDIMTMKTSGATCDANSVMNCGIRGSEMFAEMDLRAIKPYQTLIKEVGQRHCVDPAVIAAIISRESHGGSVLQDGWDHRGLKFGLMQLDKQTYHPVGAWDSKEHLSQATGILTERIKAIQKKFPTWSVAQHLKGGLSAFKSGIEAIATPSDIDNDFVNDIIARAKFYKRQSF [Q86SG7]	27.3 ± 1.4	25.6 ± 2.5	4.33 ± 0.76	5.09 ± 0.33	–
MMLRLLSSLLLVAVASGYGPPSSRPSSRVVNGEDAVPYSWPWQVSLQYEKSGSFYHTCGGSLIAPDWVVTAGHCISSSRTYQVVLGEYDRAVKEGPEQVIPINSGDLFVHPLWNRSCVACGNDIALIKLSRSAQLGDAVQLASLPPAGDILPNETPCYITGWGRLYTNGPLPDKLQEALLPVVDYEHCSRWNWWGSSVKKTMVCAGGDIRSGCNGDSGGPLNCPTEDGGWQVHGVTSFVSAFGCNTRRKPTVFTRVSAFIDWIEETIASH	–	–	–	–	percentage of EdU-negative (MCF7; protein concentration 0.022 µM): 25.2 ± 2.1%; percentage of EdU-negative (MCF7; protein concentration 0.22 µM): 29.66 ± 0.19%; percentage of EdU-negative (hTERT-HMEC; protein concentration 0.022 µM): 5.18 ± 0.89%; percentage of EdU-negative (hTERT-HMEC; protein concentration 0.22 µM): 8.27 ± 2%
MAAAVVLAAGLRAARRAVAATGVRGGQVRGAAGVTDGNEVAKAQQATPGGAAPTIFSRILDKSLPADILYEDQQCLVFRDVAPQAPVHFLVIPKKPIPRISQAEEEDQQLLGHLLLVAKQTAKAEGLGDGYRLVINDGKLGAQSVYHLHIHVLGGRQLQWPPG [Q9BX68]	24.7 ± 1.1	26.8 ± 0.95	4.56 ± 0.51	5.01 ± 0.41	–
